Test results published in patent publication US8206955B2, “Production of monatin and monatin precursors” (Cargill, Incorporated, priority 2003, dated 2012).
Substitutions are numbered along the chain they refer to.

Test: tryptophan aminotransferase activity, production of indole-pyruvic acid
Format: biochemical
Details: for tryptophan aminotransferase activity (in words): recombinant clones expressed in E. coli
Method: Cell extracts were analyzed by SDS-PAGE, and assayed for tryptophan aminotransferase activity by following production of indole-pyruvic acid using the following protocol. One mL reactions were carried out in 50 mM sodium tetraborate (pH 8.5), 0.5 mM EDTA, 0.5 mM sodium arsenate, 50 μM pyridoxal phosphate, 5 mM α-ketoglutarate, and 5 mM L-tryptophan. The reactions were initiated by the addition of cell free extracts or purified enzyme and were incubated 30 minutes at 30° C. 20% TCA (200 μL) was added to stop the reaction, and the precipitated protein was removed by centrifugation. The absorbance at 327 nm was measured and compared to a standard curve of freshly prepared indole-3-pyruvate in the assay buffer. Control reactions without the substrate tryptophan or using cell-free extracts from clones transformed with pET30a alone were also performed.
Due to background from the native E. coli aminotransferases in cell extracts, the recombinant fusion proteins each containing an aminotransferase protein fused to the pET30 amino terminal HIS6-Tag/S-Tag (6×HIS tag disclosed as SEQ ID NO: 90) were purified using immobilized metal affinity chromatography with His-Bind cartridges following manufacturer's protocols (Novagen, Madison, Wis.). The HIS6-Tag sequence (SEQ ID NO: 90) of the fusion proteins binds to the divalent Ni^2+ cations immobilized on IDA-based His-Bind resin. The eluent fractions were desalted on PD-10 (Amersham Biosciences, Piscataway, N.J.) columns and eluted in 50 mM Tris, pH 7.0. Purified proteins were analyzed by SDS-PAGE and assayed for aminotransferase activity.
Table 1 lists the specific activities measured in micrograms of indole-3-pyruvate (I3P) formed per milligram protein per minute. […] In these cases a ‘>’ precedes the specific activity number.

[1] = purified (P), 5 mM L-tryptophan, 30 minutes at 30° C.
[2] = cell extracts (CE), 5 mM L-tryptophan, 30 minutes at 30° C.

B1: E. coli tyrB: E. coli tyrosine aminotransferase (tyrB, SEQ ID NOS: 31 and 32) (protein)
chain: VFQKVDAYAGDPILTLMERFKEDPRSDKVNLSIGLYYNEDGIIPQLQAVAEAEARLNAQPHGASLYLPMEGLNCYRHAIAPLLFGADHPVLKQQRVATIQTLGGSGALKVGADFLKRYFPESGVWVSDPTWENRVAIFAGAGFEVSTYPWYDEATNGVRFNDLLATLKTLPARSIVLLHPCCHNPTGADLTNDQWDAVIEILKARELIPFLDIAYQGFGAGMEEDAYAIRAIASAGLPALVSNSFSKIFSLYGERVGGLSVMCEDAEAAGRVLGQLKATVRRNYSSPPNFGAQVVAAVLNDEALKASWLAEVEEMRTRILAMRQELVKVLSTEMPERNFDYLLNQRGMFSYTGLSAAQVDRLREEFGVYLIASGRMCVAGLNTANVQRVAKAFAAVM
modifications: E. coli
Question: For B1, which “Specific Activity” value [1] is on record?
Answer: 1 μg I3P/mg protein/min

B2: L. amylovorus araT: Lactobacillus amylovorus aromatic aminotransferase (araT, SEQ ID NOS: 11 and 12), novel (protein, listed as Lactobacillus amylovorus)
chain: MPELANDLGLSKKITDVKASGIRIFDNKVSAIPGIIKLTLGEPDMNTPEHVKQAAIKNIADNDSHYAPQKGKLELRKAISKYLKKITGIEYDPETEIVVTVGATEAINATLFAITNPGDKVAIPTPVFSLYWPVATLADADYVLMNTAEDGFKLTPKKLEETIKENPTIKAVILNYPTNPTGVEYSEDEIKALAKVIKDNHLYVITDEIYSTLTYGVKHFSIASLIPERAIYISGLSKSHAMTGYRLGYVAGPAKIMAEIGKVHGLMVTTTTDSSQAAAIEALEHGLDDPEKYREVYEKRRDYVLKELAEIEMQAVKPEGAFYIFAKIPAKYGKDDMKFALDLAFKEKVGITPGSAFGPGGEGHIRLSYASSDENLHEAMKRMKKVLQEDE
Question: What does the source list for B2?
Answer: Specific Activity [2]: 1.26 μg I3P/mg protein/min; Specific Activity [1]: 0 μg I3P/mg protein/min

B3: R. sphaeroides 35053 msa: R. sphaeroides 35053 multiple substrate aminotransferase (SEQ ID NOS: 13 and 14) (protein)
chain: MREPLALEIDPGHGGPLFLAIAEAITLDITRGRLRPGARLPGTRALARALGVHRNTVDAAYQELLTQGWLQAEPARGTFVAQDLPQGMLVHRPAPAPVEPVAMRAGLAFSDGAPDPELVPDKALARAFRRALLSPAFRAGADYGDARGTSSLREALAAYLASDRGVVADPARLLIARGSQMALFLVARAALAPGEAIAVEEPGYPLAWEAFRAAGAEVRGVPVDGGGLRIDALEAALARDPRIRAVYVTPHHQYPTTVTMGAARRLQLLELAERHRLALIEDDYDHEYRFEGRPVLPLAARAPEGLPLIYVGSLSKLLSPGIRLGYALAPERLLTRMAAARAAIDRQGDAPLEAALAELIRDGDLGRHARKARRVYRARRDLLAERLTAQLAGRAAFDLPAGGLALWLRCAGVSAETWAEAAGQAGLALLPGTRFALESPAPQAFRLGYAALDEGQIARAVEILARSFPG
modifications: R. sphaeroides
Question: Which “Specific Activity” value [2] does the source give for B3 here?
Answer: 3.97 μg I3P/mg protein/min

Question: What about the “Specific Activity” value [1] of the same molecule?
Answer: 0 μg I3P/mg protein/min

B4: Porcine type II-A: Glutamic-oxaloacetic transaminase from pig heart (type IIa), Sigma G7005 (protein, UniProt P00503 2-413, looked up)
Aspartate aminotransferase, …: APPSVFAEVPQAQPVLVFKLIADFREDPDPRKVNLGVGAYRTDDCQPWVLPVVRKVEQRIANDSSLNHEYLPILGLAEFRTCASRLALGDDSPALQEKRVGGVQSLGGTGALRIGAEFLARWYNGTNNKDTPVYVSSPTWENHNGVFTTAGFKDIRSYRYWDTEKRGLDLQGFLSDLENAPEFSIFVLHACAHNPTGTDPTPEQWKQIASVMKRRFLFPFFDSAYQGFASGNLEKDAWAIRYFVSEGFELFCAQSFSKNFGLYNERVGNLTVVAKEPDSILRVLSQMEKIVRVTWSNPPAQGARIVARTLSDPELFHEWTGNVKTMADRILSMRSELRARLEALKTPGTWNHITDQIGMFSFTGLNPKQVEYLINEKHIYLLPSGRINMCGLTTKNLDYVATSIHEAVTKIQ
Question: For B4, which “Specific Activity” value (commercial enzyme (Sigma)) is on record?
Answer: 1.5 μg I3P/mg protein/min

B5: Porcine type I: commercial porcine glutamate-oxaloacetate aminotransferase, Sigma G2751 (protein, UniProt P00503 2-413, looked up)
Aspartate aminotransferase, …: B4 Aspartate aminotransferase, …
Question: For B5, which “Specific Activity” value (commercial enzyme (Sigma)) is on record?
Answer: 1 μg I3P/mg protein/min

B6: B. subtilis araT: Bacillus subtilis aromatic aminotransferase (araT, SEQ ID NOS: 9 and 10) (protein, listed as Bacillus subtilis)
chain: MEHLLNPKAREIEISGIRKFSNLVAQHEDVISLTIGQPDFFTPHHVKAAAKKAIDENVTSYTPNAGYLELRQAVQLYMKKKADFNYDAESEIIITTGASQAIDAAFRTILSPGDEVIMPGPIYPGYEPIINLCGAKPVIVDTTSHGFKLTARLIEDALTPNTKCVVLPYPSNPTGVTLSEEELKSIAALLKGRNVFVLSDEIYSELTYDRPHYSIATYLRDQTIVINGLSKSHSMTGWRIGFLFAPKDIAKHILKVHQYNVSCASSISQKAALEAVTNGFDDALIMREQYKKRLDYVYDRLVSMGLDVVKPSGAFYIFPSIKSFGMTSFDFSMALLEDAGVALVPGSSFSTYGEGYVRLSFACSMDTLREGLDRLELFVLKKREAMQTINNGV
Question: Which “Specific Activity” value [2] does the source give for B6 here?
Answer: 0 μg I3P/mg protein/min

Question: What about the “Specific Activity” value [1] of the same molecule?
Answer: 1.5–4.5 μg I3P/mg protein/min

Question: What about the “tryptophan aminotransferase activity (in words)” value of the same molecule?
Answer: little enzymatic activity

B7: R. sphaeroides 2.4.1 tatA: Rhodobacter sphaeroides strain 2.4.1 tyrosine aminotransferase (SEQ ID NOS: 3 and 4) (protein)
chain: MRSTTAPGPSGACMTISRSRKDDEGMLTALKPQPADKILQLIQMFREDARADKIDLGVGVYKDPTGLTPVMRAVKAAEKRLWEVETTKTYTGLADEPAYNAAMAKLILAGAVPADRVASVATPGGTGAVRQALELIRMASPEATVWISNPTWPNHLSIVKYLGIPMREYRYFDAETGAVDAEGMMEDLAQVKAGDVVLLHGCCHNPTGANPNPVQWLAICESLARTGAVPLIDLAYQGFGDGLEMDAAATRLLATRLPEVLIAASCSKNFGIYRERTGILIAIGEAAGRGTVQANLNFLNRQNYSFPPDHGARLVTMILEDETLSADWKAELEEVRLNMLTLRRQLADALQAETGSNRFGFVAEHRGMFSRLGITPAEVERLRTEHGVYMVGDSRLNIAGLNRTTVPVLARAVAKVLRG
modifications: Rhodobacter sphaeroides
Question: With B7 as the molecule, how does the “Specific Activity” value [2] read?
Answer: >41.2 μg I3P/mg protein/min

Question: What about the “Specific Activity” value [1] of the same molecule?
Answer: 1086 μg I3P/mg protein/min

B8: R. sphaeroides 35053 tatA: R. sphaeroides 35053 tyrosine aminotransferase (SEQ ID NOS: 5 and 6) (protein)
chain: B7 chain with D95G, M184L, I219V
modifications: Rhodobacter sphaeroides
Question: For B8, which “Specific Activity” value [2] is on record?
Answer: >62.3 μg I3P/mg protein/min

Question: What about the “Specific Activity” value [1] of the same molecule?
Answer: >486 μg I3P/mg protein/min

B9: E. coli aspC: Escherichia coli aspartate aminotransferase (aspC) (protein, UniProt P00509 1-396, looked up)
Aspartate aminotransferase: MFENITAAPADPILGLADLFRADERPGKINLGIGVYKDETGKTPVLTSVKKAEQYLLENETTKNYLGIDGIPEFGRCTQELLFGKGSALINDKRARTAQTPGGTGALRVAADFLAKNTSVKRVWVSNPSWPNHKSVFNSAGLEVREYAYYDAENHTLDFDALINSLNEAQAGDVVLFHGCCHNPTGIDPTLEQWQTLAQLSVEKGWLPLFDFAYQGFARGLEEDAEGLRAFAAMHKELIVASSYSKNFGLYNERVGACTLVAADSETVDRAFSQMKAAIRANYSNPPAHGASVVATILSNDALRAIWEQELTDMRQRIQRMRQLFVNTLQEKGANRDFSFIIKQNGMFSFSGLTKEQVLRLREEFGVYAVASGRVNVAGMTPDNMAPLCEAIVAVL
Question: With B9 as the molecule, how does the “Specific Activity” value [1] read?
Answer: 800 μg I3P/mg protein/min

Question: And the “tryptophan aminotransferase activity (in words)” value?
Answer: significant levels of tryptophan aminotransferase activity
